Article PMC7159994

Molecular target: GST-IRP2Δ73 (human) (UniProt P48200)
Test: AlphaScreen or HTRF

- IC50: 0.12 nM
Substance: FBXL5C492Δ-SKP1 complex (tag-free) (from UniProt Q9UKA1 200-691; P63208 1-163)
